Test results reported in US20180311371A1 (Hoffmann-La Roche, published 2018).

How the values were obtained:
[1] = biological target: T1, human TPBG (trophoblast glycoprotein), full length, cell surface expressed (human, UniProt Q13641 32-420); experiment: flow cytometry on SW620 clone 4 cells; ratio of MFI; replicate 2
T1 construct: On MCF7, H1975 and BxPC-3 tumour cells, on SW620 clone 4 and on CHO-K1 cells transfected with full length human TPBG; also called huTPBG; 5T4
T1 sequence: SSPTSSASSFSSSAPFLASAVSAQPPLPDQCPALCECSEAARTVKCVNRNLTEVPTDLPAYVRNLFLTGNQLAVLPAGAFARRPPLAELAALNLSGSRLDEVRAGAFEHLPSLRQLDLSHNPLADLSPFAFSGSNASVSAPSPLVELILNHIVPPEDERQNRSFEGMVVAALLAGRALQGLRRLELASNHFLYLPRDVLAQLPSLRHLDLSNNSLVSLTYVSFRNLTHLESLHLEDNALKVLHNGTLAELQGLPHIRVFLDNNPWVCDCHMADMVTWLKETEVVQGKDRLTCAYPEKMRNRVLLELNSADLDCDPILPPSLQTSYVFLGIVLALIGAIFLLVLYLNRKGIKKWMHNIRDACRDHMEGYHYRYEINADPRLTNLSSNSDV

[2] = biological target: T2, huTPBG (recombinant human TPBG immobilised on the Biacore chip) (human, UniProt Q13641 32-355, limits assumed); experiment: SPR Biacore T200; huTPBG amine-coupled, Fab injected
T2 construct: also called human TPBG antigen
T2 sequence: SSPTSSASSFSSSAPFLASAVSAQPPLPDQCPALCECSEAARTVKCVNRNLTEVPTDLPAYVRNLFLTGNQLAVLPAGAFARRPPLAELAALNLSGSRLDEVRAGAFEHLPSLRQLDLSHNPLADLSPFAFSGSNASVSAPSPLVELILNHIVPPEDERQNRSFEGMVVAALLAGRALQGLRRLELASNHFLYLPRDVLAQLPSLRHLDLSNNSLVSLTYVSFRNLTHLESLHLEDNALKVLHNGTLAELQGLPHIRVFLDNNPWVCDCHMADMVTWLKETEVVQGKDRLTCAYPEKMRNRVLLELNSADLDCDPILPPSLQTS

[3] = biological target: T1, human TPBG (trophoblast glycoprotein), …; experiment: cell-based or functional assay
[4] = biological target: T3, minipig TPBG, full length, cell surface expressed on CHO-K1 cells (minipig); experiment: cell-based or functional assay
T3 chain: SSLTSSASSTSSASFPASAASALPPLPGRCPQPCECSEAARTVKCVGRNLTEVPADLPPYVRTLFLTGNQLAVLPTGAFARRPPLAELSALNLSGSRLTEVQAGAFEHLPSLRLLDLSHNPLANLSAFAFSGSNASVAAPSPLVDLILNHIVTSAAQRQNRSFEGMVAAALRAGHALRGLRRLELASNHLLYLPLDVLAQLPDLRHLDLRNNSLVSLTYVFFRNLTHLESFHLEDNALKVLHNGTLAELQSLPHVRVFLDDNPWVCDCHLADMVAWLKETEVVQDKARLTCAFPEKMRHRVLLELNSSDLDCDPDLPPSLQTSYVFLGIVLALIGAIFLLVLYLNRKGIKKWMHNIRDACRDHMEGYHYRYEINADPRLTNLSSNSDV

B1: anti-TPBG antibody 091, Fab fragment (Fab, V domains shown)
VH: EVHLLESGGGLVHPGGSLRLSCAASGFTFRSDAMHWVRQAPGKGLEWVSGVSGSGGSPYYADSVKGRFTISRDDSKTTLYLQMNSLRAEDTAVYYCATGGSIAGSYYYYPMDVWGQGTTVTVSS
VL: DIQMTQSPSSLSASVGDRVTITCQASQDISNYLNWYQQKPGKAPKLLIYAASTLQIGVPSRFSGSGSGTDFTFTISSLQPEDFATYYCQQANSFPLTFGGGTKVEIK
notes: also called Fab2
Question: How did the “Fold change pH 7.2 vs pH 5.5” value [1] turn out when B1 was run?
Answer: Its value is 1 fold.

Question: What about the Kd [2] of the same binder?
Answer: The Kd was 0.0558 nM.

Question: And the koff [2]?
Answer: The koff was 2.72e-05 s⁻¹.

Question: What about the kon [2] of the same binder?
Answer: Its kon is 487000 M⁻¹ s⁻¹.

Question: And the “EC50 cytotoxicity, Fab + anti-kappa-Fab-PE, CHO-K1/human TPBG, replicate 1” value [3]?
Answer: Its value is 0.23 nM.

Question: What about the “EC50 cytotoxicity, Fab + anti-kappa-Fab-PE, CHO-K1/human TPBG, replicate 2” value [3] of the same binder?
Answer: The value was 0.24 nM.

Question: What about the “EC50 cytotoxicity, Fab + anti-kappa-Fab-PE, CHO-K1/minipig TPBG, replicate 1” value [4] of the same binder?
Answer: Its value is 1.05 nM.

Question: What about the “EC50 cytotoxicity, Fab + anti-kappa-Fab-PE, CHO-K1/minipig TPBG, replicate 2” value [4] of the same binder?
Answer: Its value is 1.2 nM.
